This is an account of results in the DeepSol protein solubility set.

This data set is described as follows: soluble on expression in E. coli; label from the status in PepcDB or PDB records.
Turning to “SLIENSHVKKDDIWPSGGQMTVKDLTAKYTEGGNAILENISFSISPGQRVGLLGRTGSGKSTLLSAFLRLLNTEGEIQIDGVSWDSITLQQWRKAFGVIPQKVFIFSGTFRKNLDPYEQWSDQEIWKVADEVGLRSVIEQFPGKLDFVLVDGGCVLSHGHKQLMCLARSVLSKAKILLLDQPSAHLDPVTYQIIRRTLKQAFADCTVILCEHRIEAMLECQQFLVIEENKVRQYDSIQKLLNERSLFRQAISPSDRVKLFPHRNSSKCKSKPQIAALKEETEEEVQDTRLENLYFQGDKDCEMKRTTLDSPLGKLELSGCEQGLHEIKLLGKGTSAADAVEVPAPAAVLGGPEPLMQATAWLNAYFHQPEAIEEFPVPALHHPVFQQESFTRQVLWKLLKVVKFGEVISYQQLAALAGNPAATAAVKTALSGNPVPILIPCHRVVSSSGAVGGYEGGLAVKEWLLAHEGHRLGKPGLG”, the “soluble on expression in E. coli” value is listed as “soluble”.

“SLIPIFIAKRENGEKIHLLDHHDEELLHHMRKRESFFCIACGKEVLMRLGKQKRWHFAHKKVDSCLAFYEAESTYHMYGKELLYRWFKRQNVHVEIEHYLPEIRQRPDIFIERAGKQIAIEYQCANLSIEQLCKRTYSYWRAGIQVIWIIGGNQLKKHSAYWMKFSSLMAFSLQSYPQPLLIFFCSKQKSFMKCTFITSFSTSVAFSHIIYLPIETTTFEMLFSPVPFQREVLNREWKRRKDYFRQNALPILNYNHKSLLRLLYQCKCNPANFPSEIGVPLPSSFAFQTNSFIWQAFLYMNCIGELAVGDCISLKYVCSYIKKYTKRRMLPYFSQH”: the “soluble on expression in E. coli” value is given as “not soluble”.

As to “SLKSGCSARQVCAGNTHFAVVTVEKELYTWVNMQGGTKLHGQLGHGDKASYRQPKHVEKLQGKAIHQVSCGDDFTVCVTDEGQLYAFGSDYYGCMGVDKVAGPEVLEPMQLNFFLSNPVEQVSCGDNHVVVLTRNKEVYSWGCGEYGRLGLDSEEDYYTPQKVDVPKALIIVAVQCGCDGTFLLTQSGKVLACGLNEFNKLGLNQCMSGIINHEAYHEVPYTTSFTLAKQLSFYKIRTIAPGKTHTAAIDERGRLLTFGCNKCGQLGVGNYKKRLGINLLGGPLGGKQVIRVSCGDEFTIAATDDNHIFAWGNGGNGRLAMTPTERPHGSDICTSWPRPIFGSLHHVPDLSCRGWHTILIVEKVLNSKTIRSNSSGLSIGTVFQSSS”, the “soluble on expression in E. coli” value is on record as “soluble”.

Regarding “SLLSPAAERSQGSLLSVIMEILKDQSHRELFGLELGSGTGQHVVHFAQEMPFVTWLPSDTKEESRNSIRAYIEATKAKTVLEPVHLDASEPWDKWAGLPQNSCDIILAINLLQYTPFSTAEGVFKGSGQILKQNGLLMTYGPYAINGTITPICNEQLDETLRQMNPEWGLPDIDVLRQLAFSNGMRMERMIEMPESNKCLVFRKL”, the “soluble on expression in E. coli” value is “soluble”.

As for “SLLVENLKQLQERVAVSDGRAKADLVIKNGRIINVFSGEIMDGDIAIKNGYIAGIGNFPDAEKIIDAAGAFIAPGFIDAHVHVESAMVTPAEFARVLLPNGVTTIVTDPHEIANVAGEKGIEFMLEDAKGVPIDMFVMLPSSVPATEGEHNGETLHAEKLHPLYRHEKVIGLAEVMDFPSVAKGSSDILTKIIDAKKEGGRIDGHGAGLTSADLNNYLAVGIRTDHESTTAKEATDRLRAGMFVMLREGTVGRDLLQTIPAVSEKNSHRFCFCTDDKLINDLITEGSINFNIRLAIKNGIDPITAIQMATINAANCHNLPYLGAVAAGYQADIVFLTDIETVEISKVLKNGEVVVDNGVRHEAAFKQQAAVPFVSPPINHHVSLQDLALPLTKETCYVIGMQPNSLFTEKRIEQVAIQDGKFVPTVENDLLKMAVVERHHDTGCVGLGIVKGFGLTEGAIATTVAHDSHNIVAVGISDEAMKAAIDHITQTGGGIAVVNGAGQVLHDLALPIAGLLSDKSYEEVENDLAGLLNAFKQISTADGFDPFLTLSFLTLPVIPELKLTDQGLFDFATFQIISNEVN”, the “soluble on expression in E. coli” value is on record as “soluble”.

Take “SLNRLFKRYSQQVQLILEATRAIGDGNLKERIDTNQVQEELNDIASAINFMVDSLDQYIHDIYTLEIKQRDAHMRALQSQINPHFLYNTLEYIRMYALSRQQEELADVVYAFSTLLRNNINQEKTTTLAEEISFCEKYVYLYQMRYPDQFAYKFEIEETIADVEIPKFIIQPLVENYFVHGIDYQRQDNAIKVHAYREGEKIIVAVVDNGKGITANRLEEIRERLNQTEIDTEQSIGLRNVHERLQRFFGESYGLTIEGKEGEGTTIRLSFVA”: the “soluble on expression in E. coli” value is recorded as “soluble”.

Turning to “SLQNNQPVEFNHAINYVNKIKNRFQGQPDIYKAFLEILHTYQKEQRNAKEAGGNYTPALTEQEVYAQVARLFKNQEDLLSEFGQFLPDA”, the “soluble on expression in E. coli” value is listed as “soluble”.
